Laboratory results as given in publication PMC6684243.

Target: N-terminal domain of the HIV-1 capsid protein (HIV-1) (UniProt P12493)
Assay: ITC

calcium-saturated human calmodulin ((Ca^2+)4-CaM) (from UniProt P0DP23 1-149) (natural protein)
Kd: 3.73 µM
stoichiometry N: 1
